Results as given in article doi:10.1101/2023.01.09.523258.

Target: T1, Albumin from chicken egg (Ovalbumin/OVA) (chicken), P01012
T1 chain: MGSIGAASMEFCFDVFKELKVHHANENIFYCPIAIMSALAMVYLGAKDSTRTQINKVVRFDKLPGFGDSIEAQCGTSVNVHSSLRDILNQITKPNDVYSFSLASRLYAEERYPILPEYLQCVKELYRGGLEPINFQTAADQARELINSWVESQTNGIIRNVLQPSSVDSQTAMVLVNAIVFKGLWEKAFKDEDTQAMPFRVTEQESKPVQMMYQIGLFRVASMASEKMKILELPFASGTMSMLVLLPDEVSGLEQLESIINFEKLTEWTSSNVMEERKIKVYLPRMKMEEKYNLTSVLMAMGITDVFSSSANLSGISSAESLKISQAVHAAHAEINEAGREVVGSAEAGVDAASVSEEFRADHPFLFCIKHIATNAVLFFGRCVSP
Experiment: native MS
Details: remark: other sources report otherwise

- relative abundance of the dimer: 5 to 8%
- stoichiometry N: 2
B1: Albumin from chicken egg (Ovalbumin/OVA), P01012 1-386 (natural protein)
chain: MGSIGAASMEFCFDVFKELKVHHANENIFYCPIAIMSALAMVYLGAKDSTRTQINKVVRFDKLPGFGDSIEAQCGTSVNVHSSLRDILNQITKPNDVYSFSLASRLYAEERYPILPEYLQCVKELYRGGLEPINFQTAADQARELINSWVESQTNGIIRNVLQPSSVDSQTAMVLVNAIVFKGLWEKAFKDEDTQAMPFRVTEQESKPVQMMYQIGLFRVASMASEKMKILELPFASGTMSMLVLLPDEVSGLEQLESIINFEKLTEWTSSNVMEERKIKVYLPRMKMEEKYNLTSVLMAMGITDVFSSSANLSGISSAESLKISQAVHAAHAEINEAGREVVGSAEAGVDAASVSEEFRADHPFLFCIKHIATNAVLFFGRCVSP
